From patent US20240344124, “Quantum Dot-Enrichment of CRISPR-Associated (Cas) Proteins for Environmental RNA Enrichment” (The Government of the United States of America, as …, published 2024)

Molecular target: T1, dLwaCas13a (LwaC2c2 R474A/R1046A double mutant); the text does not say whether the double or the quad mutant … (Leptotrichia wadei)
T1 chain: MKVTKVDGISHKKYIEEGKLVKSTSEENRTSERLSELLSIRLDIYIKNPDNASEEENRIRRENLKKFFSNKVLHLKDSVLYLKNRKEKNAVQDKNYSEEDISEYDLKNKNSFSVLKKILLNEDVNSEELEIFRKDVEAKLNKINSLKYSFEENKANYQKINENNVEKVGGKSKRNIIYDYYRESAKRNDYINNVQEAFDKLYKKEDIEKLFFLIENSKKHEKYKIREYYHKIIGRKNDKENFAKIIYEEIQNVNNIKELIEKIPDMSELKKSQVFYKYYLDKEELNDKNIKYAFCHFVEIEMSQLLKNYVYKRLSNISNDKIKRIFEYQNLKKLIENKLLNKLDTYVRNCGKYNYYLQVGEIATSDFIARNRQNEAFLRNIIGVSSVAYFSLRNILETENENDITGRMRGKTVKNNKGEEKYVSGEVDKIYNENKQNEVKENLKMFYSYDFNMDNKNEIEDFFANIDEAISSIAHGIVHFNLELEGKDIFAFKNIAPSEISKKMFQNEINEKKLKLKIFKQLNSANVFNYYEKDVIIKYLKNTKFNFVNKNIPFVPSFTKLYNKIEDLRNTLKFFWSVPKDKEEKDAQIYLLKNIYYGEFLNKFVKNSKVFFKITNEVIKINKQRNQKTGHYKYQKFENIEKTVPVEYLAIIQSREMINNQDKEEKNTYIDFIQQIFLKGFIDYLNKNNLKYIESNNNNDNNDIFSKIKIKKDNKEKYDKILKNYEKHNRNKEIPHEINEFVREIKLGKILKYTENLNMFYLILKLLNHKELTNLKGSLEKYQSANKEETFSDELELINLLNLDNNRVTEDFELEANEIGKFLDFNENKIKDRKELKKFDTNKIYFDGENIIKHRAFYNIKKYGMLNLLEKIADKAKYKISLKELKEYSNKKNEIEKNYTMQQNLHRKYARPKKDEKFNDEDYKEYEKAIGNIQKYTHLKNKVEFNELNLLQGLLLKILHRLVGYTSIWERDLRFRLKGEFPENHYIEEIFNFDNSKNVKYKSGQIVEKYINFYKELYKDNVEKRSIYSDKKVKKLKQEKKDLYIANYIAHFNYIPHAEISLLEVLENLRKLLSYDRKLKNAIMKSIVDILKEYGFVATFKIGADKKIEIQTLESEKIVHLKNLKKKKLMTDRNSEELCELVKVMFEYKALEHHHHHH
Assay: pulldown; […]; 50 mM Tris pH 8, NaCl, 10 mM MgCl2, 37 C; […]
Settings: tags: polyhistidine tag; GenScript

B1: cr7 crRNA ; shortened lcrV target RNA (237 nt) (ssRNA ; ssRNA)
RNA 1: GGGGAUUUAGACUACCCCAAAAACGAAGGGGACUAAAACAAUAUCUAUAUUUUUAUCUUUGACUAAC
RNA 2: AUUGAGGAUCUAGAAAAAGUUAGGGUGGAACAACUUACUGGUCAUGGUUCUUCAGUUUUAGAAGAAUUGGUUCAGUUAGUCAAAGAUAAAAAUAUAGAUAUUUCCAUUAAAUAUGAUCCCAGAAAAGAUUCGGAGGUUUUUGCCAAUAGAGUAAUUACUGAUGAUAUCGAAUUGCUCAAGAAAAUCCUAGCUUAUUUUCUACCCGAGGAUGCCAUUCUUAAAGGCGGUCAUUAUGAC
  binding result: binds
